Assays:
Assay in all cases: high-throughput RNA pulldown from lysate on Ni-NTA beads; HRP: 50 mM Tris pH 8, 150 mM NaCl, 1 mM beta-mercaptoethanol, 50 ug/ml BSA, 3 ug/ml yeast RNA, 0.5% heparin; ITC and FP: Tris pH 8, 200 mM KCl, 5% glycerol; MST: 50 mM Tris pH 8, 200 mM NaCl, 1 mM DTT, BSA, heparin, 0.05% Tween 20
Settings in all cases: tags: N-terminal His-eGFP
[1] = target: T1, GFP-9S library array, motif 4 ND N98P;D124V (synthetic construct, N98P;D124V)
T1 chain: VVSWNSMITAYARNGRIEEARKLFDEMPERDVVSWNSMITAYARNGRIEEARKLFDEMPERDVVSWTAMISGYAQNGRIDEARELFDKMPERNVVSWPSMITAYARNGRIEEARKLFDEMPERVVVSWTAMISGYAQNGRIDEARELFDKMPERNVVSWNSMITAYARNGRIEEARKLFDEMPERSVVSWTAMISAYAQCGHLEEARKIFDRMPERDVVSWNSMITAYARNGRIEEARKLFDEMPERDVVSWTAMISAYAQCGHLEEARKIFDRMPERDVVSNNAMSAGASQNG

[2] = target: T2, GFP-9S library array, motif 4 ND N98F;D124H (synthetic construct, N98F;D124H)
T2 chain: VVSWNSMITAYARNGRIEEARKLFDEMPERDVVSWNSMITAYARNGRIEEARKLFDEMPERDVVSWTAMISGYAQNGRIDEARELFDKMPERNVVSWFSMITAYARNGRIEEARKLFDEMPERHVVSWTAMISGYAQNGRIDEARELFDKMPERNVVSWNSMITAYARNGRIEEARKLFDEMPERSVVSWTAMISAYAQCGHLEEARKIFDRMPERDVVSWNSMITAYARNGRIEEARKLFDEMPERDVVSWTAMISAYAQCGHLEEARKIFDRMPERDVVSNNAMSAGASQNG

[3] = target: T3, GFP-9S library array, motif 4 ND N98M;D124E (synthetic construct, N98M;D124E)
T3 chain: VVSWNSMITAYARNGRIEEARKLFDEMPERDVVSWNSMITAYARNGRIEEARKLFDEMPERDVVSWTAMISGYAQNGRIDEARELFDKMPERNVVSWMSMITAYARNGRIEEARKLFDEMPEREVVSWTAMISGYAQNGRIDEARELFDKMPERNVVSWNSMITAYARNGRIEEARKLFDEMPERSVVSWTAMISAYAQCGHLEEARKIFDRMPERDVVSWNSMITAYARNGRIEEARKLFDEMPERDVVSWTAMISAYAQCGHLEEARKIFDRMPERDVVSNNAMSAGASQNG

[4] = target: T4, GFP-9S library array, motif 4 ND N98T;D124S (synthetic construct, N98T;D124S)
T4 chain: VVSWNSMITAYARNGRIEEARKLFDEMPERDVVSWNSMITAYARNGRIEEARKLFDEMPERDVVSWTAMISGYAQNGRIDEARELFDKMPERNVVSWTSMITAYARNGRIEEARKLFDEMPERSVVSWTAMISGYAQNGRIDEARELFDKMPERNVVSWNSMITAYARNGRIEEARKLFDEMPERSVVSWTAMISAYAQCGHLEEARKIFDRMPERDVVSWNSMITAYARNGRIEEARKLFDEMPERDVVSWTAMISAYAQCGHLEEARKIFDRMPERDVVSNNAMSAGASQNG

[5] = target: T5, GFP-9S library array, motif 4 ND N98K;D124Y (synthetic construct, N98K;D124Y)
T5 chain: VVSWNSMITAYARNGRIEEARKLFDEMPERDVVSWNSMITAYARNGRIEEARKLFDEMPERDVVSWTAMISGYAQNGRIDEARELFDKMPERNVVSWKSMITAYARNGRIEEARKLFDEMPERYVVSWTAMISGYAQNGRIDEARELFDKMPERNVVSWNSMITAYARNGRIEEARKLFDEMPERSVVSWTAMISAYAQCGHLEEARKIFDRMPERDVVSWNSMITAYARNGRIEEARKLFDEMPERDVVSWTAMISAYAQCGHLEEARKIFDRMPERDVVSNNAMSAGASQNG

Row | Binder | Kd ([1]; label: 5' Cy5) | Kd ([2]; label: 5' Cy5) | Kd ([3]; label: 5' Cy5) | Kd ([4]; label: 5' Cy5) | Kd ([5]; label: 5' Cy5) | Kd ([1]; label: 5' IRDye 800CW) | Kd ([2]; label: 5' IRDye 800CW) | Kd ([3]; label: 5' IRDye 800CW) | Kd ([4]; label: 5' IRDye 800CW) | Kd ([5]; label: 5' IRDye 800CW)
1 | AUUACACGUGA (ssRNA) [Cy5-rpoA] | 121 nM | 73.4 nM | 117 nM | 37 nM | 62.5 nM |  |  |  |  | 
2 | AUUAGACGUGA (ssRNA) [Cy5-rpoA-G] | 150 nM | 84.9 nM | 89 nM | 65.5 nM | 49.3 nM |  |  |  |  | 
3 | AUUAAACGUGA (ssRNA) [IR-rpoA-A] |  |  |  |  |  | 407 nM | 188 nM | 264 nM | 18.4 nM | 115 nM
4 | AUUAUACGUGA (ssRNA) [IR-rpoA-U] |  |  |  |  |  | 291 nM | 138 nM | 158 nM | 48.8 nM | 128 nM

— paper PMC8809517, “Cofactor-independent RNA editing by a synthetic S-type PPR protein”
